B1: Cell division cycle-associated 7-like protein (Homo sapiens), Q96GN5 (parent)
chain: MELATRYQIPKEVADIFNAPSDDEEFVGFRDDVPMETLSSEESCDSFDSLESGKQQDVRFHSKYFTEELRRIFIEDTDSETEDFAGFTQSDLNGKTNPEVMVVESDLSDDGKASLVSEEEEDEEEDKATPRRSRSRRSSIGLRVAFQFPTKKLANKPDKNSSSEQLFSSARLQNEKKTILERKKDCRQVIQREDSTSESEDDSRDESQESSDALLKRTMNIKENKAMLAQLLAELNSMPDFFPVRTPTSASRKKTVRRAFSEGQITRRMNPTRSARPPEKFALENFTVSAAKFAEEFYSFRRRKTIGGKCREYRRRHRISSFRPVEDITEEDLENVAITVRDKIYDKVLGNTCHQCRQKTIDTKTVCRNQGCCGVRGQFCGPCLRNRYGEDVRSALLDPDWVCPPCRGICNCSYCRKRDGRCATGILIHLAKFYGYDNVKEYLESLQKELVEDN
partner: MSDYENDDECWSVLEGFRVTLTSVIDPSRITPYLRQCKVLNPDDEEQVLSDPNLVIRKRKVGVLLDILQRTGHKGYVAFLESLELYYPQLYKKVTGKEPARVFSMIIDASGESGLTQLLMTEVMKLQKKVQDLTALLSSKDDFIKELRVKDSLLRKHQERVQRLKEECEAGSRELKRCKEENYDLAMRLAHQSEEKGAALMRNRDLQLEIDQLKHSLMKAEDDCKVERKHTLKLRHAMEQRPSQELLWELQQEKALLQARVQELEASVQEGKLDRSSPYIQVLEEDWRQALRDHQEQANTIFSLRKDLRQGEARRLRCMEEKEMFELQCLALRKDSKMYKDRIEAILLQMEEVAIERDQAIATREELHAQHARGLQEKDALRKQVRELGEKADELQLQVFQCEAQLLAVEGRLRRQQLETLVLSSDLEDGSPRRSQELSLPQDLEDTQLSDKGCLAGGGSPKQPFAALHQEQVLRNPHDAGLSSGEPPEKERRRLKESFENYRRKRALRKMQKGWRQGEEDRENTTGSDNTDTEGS
B2: Coiled-coil alpha-helical rod protein 1 (Homo sapiens), Q8TD31 (parent)
chain: MFPPSGSTGLIPPSHFQARPLSTLPRMAPTWLSDIPLVQPPGHQDVSERRLDTQRPQVTMWERDVSSDRQEPGRRGRSWGLEGSQALSQQAEVIVRQLQELRRLEEEVRLLRETSLQQKMRLEAQAMELEALARAEKAGRAEAEGLRAALAGAEVVRKNLEEGSQRELEEVQRLHQEQLSSLTQAHEEALSSLTSKAEGLEKSLSSLETRRAGEAKELAEAQREAELLRKQLSKTQEDLEAQVTLVENLRKYVGEQVPSEVHSQTWELERQKLLETMQHLQEDRDSLHATAELLQVRVQSLTHILALQEEELTRKVQPSDSLEPEFTRKCQSLLNRWREKVFALMVQLKAQELEHSDSVKQLKGQVASLQEKVTSQSQEQAILQRSLQDKAAEVEVERMGAKGLQLELSRAQEARRRWQQQTASAEEQLRLVVNAVSSSQIWLETTMAKVEGAAAQLPSLNNRLSYAVRKVHTIRGLIARKLALAQLRQESCPLPPPVTDVSLELQQLREERNRLDAELQLSARLIQQEVGRAREQGEAERQQLSKVAQQLEQELQQTQESLASLGLQLEVARQGQQESTEEAASLRQELTQQQELYGQALQEKVAEVETRLREQLSDTERRLNEARREHAKAVVSLRQIQRRAAQEKERSQELRRLQEEARKEEGQRLARRLQELERDKNLMLATLQQEGLLSRYKQQRLLTVLPSLLDKKKSVVSSPRPPECSASAPVAAAVPTRESIKGSLSVLLDDLQDLSEAISKEEAVCQGDNLDRCSSSNPQMSS
partner: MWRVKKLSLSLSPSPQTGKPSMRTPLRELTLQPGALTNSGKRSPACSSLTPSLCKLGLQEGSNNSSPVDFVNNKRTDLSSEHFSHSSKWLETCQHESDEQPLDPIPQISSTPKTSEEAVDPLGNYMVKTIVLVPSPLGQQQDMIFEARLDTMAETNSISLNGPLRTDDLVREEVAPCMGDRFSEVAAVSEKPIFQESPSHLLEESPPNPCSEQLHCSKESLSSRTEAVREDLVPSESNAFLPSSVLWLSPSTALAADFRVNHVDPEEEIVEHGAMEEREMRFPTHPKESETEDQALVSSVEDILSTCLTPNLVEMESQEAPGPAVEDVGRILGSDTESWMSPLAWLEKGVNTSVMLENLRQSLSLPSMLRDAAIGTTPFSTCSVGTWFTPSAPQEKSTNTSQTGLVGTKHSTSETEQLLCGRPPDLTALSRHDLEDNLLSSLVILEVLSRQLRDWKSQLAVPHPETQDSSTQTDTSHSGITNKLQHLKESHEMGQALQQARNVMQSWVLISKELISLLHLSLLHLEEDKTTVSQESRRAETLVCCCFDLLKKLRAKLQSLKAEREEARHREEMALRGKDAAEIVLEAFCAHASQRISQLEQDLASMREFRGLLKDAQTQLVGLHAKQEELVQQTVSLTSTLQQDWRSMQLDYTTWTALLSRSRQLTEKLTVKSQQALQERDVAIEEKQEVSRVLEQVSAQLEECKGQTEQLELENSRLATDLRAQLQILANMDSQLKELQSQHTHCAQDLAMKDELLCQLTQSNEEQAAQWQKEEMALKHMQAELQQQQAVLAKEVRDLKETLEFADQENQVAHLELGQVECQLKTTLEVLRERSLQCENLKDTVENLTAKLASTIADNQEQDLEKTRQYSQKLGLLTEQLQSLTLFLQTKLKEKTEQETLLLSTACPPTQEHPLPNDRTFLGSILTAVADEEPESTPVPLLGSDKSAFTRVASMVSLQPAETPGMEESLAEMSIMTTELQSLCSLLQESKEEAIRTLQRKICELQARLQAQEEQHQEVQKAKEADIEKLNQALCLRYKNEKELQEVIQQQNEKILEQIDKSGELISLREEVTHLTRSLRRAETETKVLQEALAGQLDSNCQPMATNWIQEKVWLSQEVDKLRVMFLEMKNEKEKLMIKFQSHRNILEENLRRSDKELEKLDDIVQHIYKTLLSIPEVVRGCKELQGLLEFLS
B3: Ras GTPase-activating protein-binding protein 2 (Homo sapiens), Q9UN86 (parent)
chain: MVMEKPSPLLVGREFVRQYYTLLNKAPEYLHRFYGRNSSYVHGGVDASGKPQEAVYGQNDIHHKVLSLNFSECHTKIRHVDAHATLSDGVVVQVMGLLSNSGQPERKFMQTFVLAPEGSVPNKFYVHNDMFRYEDEVFGDSEPELDEESEDEVEEEQEERQPSPEPVQENANSGYYEAHPVTNGIEEPLEESSHEPEPEPESETKTEELKPQVEEKNLEELEEKSTTPPPAEPVSLPQEPPKAFSWASVTSKNLPPSGTVSSSGIPPHVKAPVSQPRVEAKPEVQSQPPRVREQRPRERPGFPPRGPRPGRGDMEQNDSDNRRIIRYPDSHQLFVGNLPHDIDENELKEFFMSFGNVVELRINTKGVGGKLPNFGFVVFDDSEPVQRILIAKPIMFRGEVRLNVEEKKTRAARERETRGGGDDRRDIRRNDRGPGGPRGIVGGGMMRDRDGRGPPPRGGMAQKLGSGRGTGQMEGRFTGQRR
B4: Coiled-coil alpha-helical rod protein 1 (Homo sapiens), Q8TD31 (parent)
chain: B2 chain
partner: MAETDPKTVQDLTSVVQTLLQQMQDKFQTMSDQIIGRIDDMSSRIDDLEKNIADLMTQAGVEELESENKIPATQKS
B5: Signal transducing adapter molecule 1 (Homo sapiens), Q92783 (parent)
chain: MPLFATNPFDQDVEKATSEMNTAEDWGLILDICDKVGQSRTGPKDCLRSIMRRVNHKDPHVAMQALTLLGACVSNCGKIFHLEVCSRDFASEVSNVLNKGHPKVCEKLKALMVEWTDEFKNDPQLSLISAMIKNLKEQGVTFPAIGSQAAEQAKASPALVAKDPGTVANKKEEEDLAKAIELSLKEQRQQSTTLSTLYPSTSSLLTNHQHEGRKVRAIYDFEAAEDNELTFKAGEIITVLDDSDPNWWKGETHQGIGLFPSNFVTADLTAEPEMIKTEKKTVQFSDDVQVETIEPEPEPAFIDEDKMDQLLQMLQSTDPSDDQPDLPELLHLEAMCHQMGPLIDEKLEDIDRKHSELSELNVKVMEALSLYTKLMNEDPMYSMYAKLQNQPYYMQSSGVSGSQVYAGPPPSGAYLVAGNAQMSHLQSYSLPPEQLSSLSQAVVPPSANPALPSQQTQAAYPNTMVSSVQGNTYPSQAPVYSPPPAATAAAATADVTLYQNAGPNMPQVPNYNLTSSTLPQPGGSQQPPQPQQPYSQKALL

Variants of: B1
Conditions: with card9_human CARD9, Q9H257

Variant | effect of a mutation on the interaction
R268H | with no effect

Variants of: B2
Conditions: with spag5_human SPAG5, Q96R06

Variant | effect of a mutation on the interaction
W337R | disrupting interaction strength

Variants of: B3
Conditions: with ubp10_human USP10, Q14694
Sequence of ubp10_human USP10, Q14694 (Q14694 whole entry): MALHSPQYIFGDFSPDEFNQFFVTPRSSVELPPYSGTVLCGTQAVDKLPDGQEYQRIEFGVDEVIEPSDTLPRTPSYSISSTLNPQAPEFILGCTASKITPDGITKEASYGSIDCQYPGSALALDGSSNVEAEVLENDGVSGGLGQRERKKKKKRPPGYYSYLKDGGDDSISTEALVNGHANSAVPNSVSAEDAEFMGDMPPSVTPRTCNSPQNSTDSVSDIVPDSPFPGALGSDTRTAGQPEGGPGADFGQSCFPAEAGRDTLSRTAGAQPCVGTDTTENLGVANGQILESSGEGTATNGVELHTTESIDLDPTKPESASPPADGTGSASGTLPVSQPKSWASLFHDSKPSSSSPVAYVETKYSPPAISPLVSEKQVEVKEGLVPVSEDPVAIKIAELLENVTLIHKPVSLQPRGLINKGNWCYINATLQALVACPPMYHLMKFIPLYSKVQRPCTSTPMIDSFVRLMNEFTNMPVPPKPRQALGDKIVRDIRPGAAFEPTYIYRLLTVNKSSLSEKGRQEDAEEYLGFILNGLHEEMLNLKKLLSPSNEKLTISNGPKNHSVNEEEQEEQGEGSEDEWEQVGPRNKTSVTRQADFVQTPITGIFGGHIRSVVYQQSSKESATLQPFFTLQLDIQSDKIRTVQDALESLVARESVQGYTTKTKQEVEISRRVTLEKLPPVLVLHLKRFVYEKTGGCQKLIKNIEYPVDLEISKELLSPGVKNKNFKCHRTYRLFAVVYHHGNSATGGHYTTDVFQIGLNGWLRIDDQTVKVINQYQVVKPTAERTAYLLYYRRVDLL

Variant | effect of a mutation on the interaction
L209P | with no effect

Variants of: B4
Conditions: with hsbp1_human HSBP1, O75506

Variant | effect of a mutation on the interaction
W337R | disrupting interaction strength

Variants of: B5
Conditions: with hgs_human HGS

Variant | effect of a mutation on the interaction
H331L | with no effect

— IntAct's records for PubMed 29892012
